Measurements reported in US20160264649A1.

What was measured:
Test in all cases: cell-based or functional assay
[1] = target: HIV-1 92BR020 Env (HIV-1)
[2] = target: HIV-1 92BR020 Env on pseudovirus (HIV-1)
[3] = target: HIV-1 92RW020 Env (HIV-1)
[4] = target: HIV-1 92UG001 Env (HIV-1)
[5] = target: HIV-1 92UG005 Env (HIV-1)
[6] = target: HIV-1 93IN905 Env (HIV-1)
[7] = target: HIV-1 93MW959 Env on pseudovirus (HIV-1)
[8] = target: HIV-1 93UG077 Env (HIV-1)
[9] = target: HIV-1 94UG103 Env (HIV-1)
[10] = target: HIV-1 97ZA012 Env on pseudovirus (HIV-1)
[11] = target: HIV-1 98CN006 Env on pseudovirus (HIV-1)
[12] = target: HIV-1 APV-6 Env (HIV-1)
[13] = target: HIV-1 APV_17 Env on pseudovirus (HIV-1)
[14] = target: HIV-1 APV_6 Env on pseudovirus (HIV-1)
[15] = target: HIV-1 CAAN.A2 (Acute) Env on pseudovirus (HIV-1)
[16] = target: HIV-1 CMU02 Env (HIV-1)
[17] = target: HIV-1 IAVI-C3 Env (HIV-1)
[18] = target: HIV-1 JRFL Env on pseudovirus (HIV-1)
[19] = target: HIV-1 MGRM-AE-001 Env (HIV-1)
[20] = target: HIV-1 MGRM-AE-002 Env (HIV-1)
[21] = target: HIV-1 MGRM-AG-002 Env (HIV-1)
[22] = target: HIV-1 MGRM-AG-008 Env (HIV-1)
[23] = target: HIV-1 MGRM-AG-009 Env (HIV-1)
[24] = target: HIV-1 MGRM-AG-011 Env (HIV-1)
[25] = target: HIV-1 MGRM-C-005 Env on pseudovirus (HIV-1)
[26] = target: HIV-1 MGRM-C-010 Env on pseudovirus (HIV-1)
[27] = target: HIV-1 MGRM-C-012 Env on pseudovirus (HIV-1)
[28] = target: HIV-1 MGRM-C-017 Env on pseudovirus (HIV-1)
[29] = target: HIV-1 MGRM-C-020 Env on pseudovirus (HIV-1)
[30] = target: HIV-1 MGRM-C-024 Env on pseudovirus (HIV-1)
[31] = target: HIV-1 MGRM-Chronic-B-001 Env on pseudovirus (HIV-1)
[32] = target: HIV-1 MGRM-Chronic-B-002 Env on pseudovirus (HIV-1)
[33] = target: HIV-1 MGRM-Chronic-B-004 Env on pseudovirus (HIV-1)
[34] = target: HIV-1 MGRM-Chronic-B-011 Env on pseudovirus (HIV-1)
[35] = target: HIV-1 MGRM-Chronic-B-018 Env on pseudovirus (HIV-1)
[36] = target: HIV-1 MGRM-D-005 Env (HIV-1)
[37] = target: HIV-1 MGRM-D-011 Env (HIV-1)
[38] = target: HIV-1 MGRM-D-028 Env (HIV-1)
[39] = target: HIV-1 MGRM-F1-004 Env (HIV-1)
[40] = target: HIV-1 MGRM-F1-008 Env (HIV-1)
[41] = target: HIV-1 MGRM-F1-010 Env (HIV-1)
[42] = target: HIV-1 MGRM-F1-014 Env (HIV-1)
[43] = target: HIV-1 MGRM-F1-015 Env (HIV-1)
[44] = target: HIV-1 MGRM-F1-016 Env (HIV-1)
[45] = target: HIV-1 MGRM-G-014 Env (HIV-1)
[46] = target: HIV-1 MGRM-G-019 Env (HIV-1)
[47] = target: HIV-1 MGRM-G-027 Env (HIV-1)
[48] = target: HIV-1 PVO.4 (Acute) Env on pseudovirus (HIV-1)
[49] = target: HIV-1 VLGCB3 Env on pseudovirus (HIV-1)
[50] = target: aMLV envelope (negative control pseudovirus)
[51] = target: aMLV envelope

## 2F5 (antibody)
[1]
  neutralization IC50: > 50 µg/mL
  neutralization IC90: > 50 µg/mL
[2]
  IC50: > 50 µg/mL
[3]
  neutralization IC50: 3.37 µg/mL
  neutralization IC90: 27.7 µg/mL
[4]
  IC50 (µg/ml), pseudovirus neutralization: 13 µg/mL
[5]
  IC50 (µg/ml), pseudovirus neutralization: 8.61 µg/mL
  neutralization IC50: 11.8 µg/mL
  neutralization IC90: > 50 µg/mL
[6]
  neutralization IC50: > 50 µg/mL
  neutralization IC90: > 50 µg/mL
[7]
  IC50: > 50 µg/mL
[8]
  neutralization IC50: 4.45 µg/mL
  neutralization IC90: 33.4 µg/mL
[9]
  neutralization IC50: 3.79 µg/mL
  neutralization IC90: 46.6 µg/mL
[10]
  IC50: > 50 µg/mL
[11]
  IC50: > 50 µg/mL
[12]
  neutralization IC50: 0.1 µg/mL
[13]
  IC50: 4.61 µg/mL
[14]
  IC50: 0.25 µg/mL
[15]
  IC50: 23.1 µg/mL
[16]
  IC50 (µg/ml), pseudovirus neutralization: 0.6 µg/mL
  neutralization IC50: 0.38 µg/mL
  neutralization IC90: 12.2 µg/mL
[17]
  neutralization IC50: > 50 µg/mL
[18]
  IC50: 3.54 µg/mL
[19]
  IC50 (µg/ml), pseudovirus neutralization: 0.29 µg/mL
[20]
  IC50 (µg/ml), pseudovirus neutralization: 0.31 µg/mL
[21]
  IC50 (µg/ml), pseudovirus neutralization: 0.54 µg/mL
[22]
  IC50 (µg/ml), pseudovirus neutralization: 0.54 µg/mL
[23]
  IC50 (µg/ml), pseudovirus neutralization: 24.8 µg/mL
[24]
  IC50 (µg/ml), pseudovirus neutralization: > 50 µg/mL
[25]
  IC50: > 50 µg/mL
[26]
  IC50: > 50 µg/mL
[27]
  IC50: > 50 µg/mL
[28]
  IC50: > 50 µg/mL
[29]
  IC50: > 50 µg/mL
[30]
  IC50: > 50 µg/mL
[31]
  IC50: 0.55 µg/mL
[32]
  IC50: 1.25 µg/mL
[33]
  IC50: 2.41 µg/mL
[34]
  IC50: 0.81 µg/mL
[35]
  IC50: 10.8 µg/mL
[36]
  IC50 (µg/ml), pseudovirus neutralization: > 50 µg/mL
[37]
  IC50 (µg/ml), pseudovirus neutralization: > 50 µg/mL
[38]
  IC50 (µg/ml), pseudovirus neutralization: > 50 µg/mL
[39]
  IC50 (pseudovirus neutralization): 4.31 µg/mL
[40]
  IC50 (pseudovirus neutralization): 1.61 µg/mL
[41]
  IC50 (pseudovirus neutralization): 14.6 µg/mL
[42]
  IC50 (pseudovirus neutralization): 15.1 µg/mL
[43]
  IC50 (pseudovirus neutralization): 0.1 µg/mL
[44]
  IC50 (pseudovirus neutralization): 21.5 µg/mL
[45]
  IC50 (µg/ml), pseudovirus neutralization: 9.65 µg/mL
[46]
  IC50 (µg/ml), pseudovirus neutralization: > 50 µg/mL
[47]
  IC50 (µg/ml), pseudovirus neutralization: 0.28 µg/mL
[48]
  IC50: > 50 µg/mL
[49]
  IC50: > 50 µg/mL
[50]
  IC50 (pseudovirus neutralization): > 50 µg/mL
[51]
  neutralization IC50: > 50 µg/mL
  neutralization IC90: > 50 µg/mL
